B1: Wild-type BM-3: wild-type cytochrome P450 BM-3 from Bacillus megaterium, SEQ ID NO:1 (protein, listed as Bacillus megaterium)
chain: TIKEMPQPKTFGELKNLPLLNTDKPVQALMKIADELGEIFKFEAPGRVTRYLSSQRLIKEACDESRFDKNLSQALKFVRDFAGDGLFTSWTHEKNWKKAHNILLPSFSQQAMKGYHAMMVDIAVQLVQKWERLNADEHIEVPEDMTRLTLDTIGLCGFNYRFNSFYRDQPHPFITSMVRALDEAMNKLQRANPDDPAYDENKRQFQEDIKVMNDLVDKIIADRKASGEQSDDLLTHMLNGKDPETGEPLDDENIRYQIITFLIAGHETTSGLLSFALYFLVKNPHVLQKAAEEAARVLVDPVPSYKQVKQLKYVGMVLNEALRLWPTAPAFSLYAKEDTVLGGEYPLEKGDELMVLIPQLHRDKTIWGDDVEEFRPERFENPSAIPQHAFKPFGNGQRACIGQQFALHEATLVLGMMLKHFDFEDHTNYELDIKETLTLKPEGFVVKAKSKKIPLGGIPSPSTEQSAKKVRKKAENAHNTPLLVLYGSNMGTAEGTARDLADIAMSKGFAPQVATLDSHAGNLPREGAVLIVTASYNGHPPDNAKQFVDWLDQASADEVKGVRYSVFGCGDKNWATTYQKVPAFIDETLAAKGAENIADRGEADASDDFEGTYEEWREHMWSDVAAYFNLDIENSEDNKSTLSLQFVDSAADMPLAKMHGAFSTNVVASKELQQPGSARSTRHLEIELPKEASYQEGDHLGVIPRNYEGIVNRVTARFGLDASQQIRLEAEEEKLAHLPLAKTVSVEELLQYVELQDPVTRTQLRAMAAKTVCPPHKVELEALLEKQAYKEQVLAKRLTMLELLEKYPACEMKFSEFIALLPSIRPRYYSISSSPRVDEKQASITVSVVSGEAWSGYGEYKGIASNYLAELQEGDTITCFISTPQSEFTLPKDPETPLIMVGPGTGVAPFRGFVQARKQLKEQGQSLGEAHLYFGCRSPHEDYLYQEELENAQSEGIITLHTAFSRMPNQPKTYVQHVMEQDGKKLIELLDQGAHFYICGDGSQMAPAVEATLMKSYADVHQVSEADARLWLQQLEEKGRYAKDVWAG
B2: P450PMO: P450 BM-3 variant, SEQ ID NO:125; 7-7 plus G443A and D698G; propane monooxygenase (protein)
chain: TIKEMPQPKTFGELKNLPLLNTDKPVQALMKIADELGEIFKFEAPGCVTRYISSQRLIKEACDESRFDKNLSQELKFFRDFGGDGLFTSWTHEINWKKAHNILLPSFSQQAMKGYHAMMVDIAVQLVQKWERLNADEHIEVSEDMTRLTLDTIGLCGFNYRFNSFYRDQPHPFIISMVRALDEVMNKPQRANPDDPAYDENKRQCQEDIKVMNDLVDKIIADRKARGEQSDDLLTQMLNGKDPETGEPLDDGNISYQIITFLIAGHETTSGLLSFALYFLVKNPHVLQKVVEEAARVLVDPVPSYKQVKQLKYVGMVLNEALRLWPTFPAFSLYAKEDTVLGGEYPLEKGDEVMVLIPQLHRDKTVWGDDVEEFRPERFENPSAIPQHAFKPFGNGQRACIGQQFALHEATLVLGMMLKHFDFEDHTNYELDIKETLTLKPEAFVVKAKSKKIPLGGIPSPSTGQSAKKVRKKAENAHNTPLLVLYGSNMGTAEGTARDLADIAMSKGFAPQVATLDSHAGNLPREGAVLIVTASYNGHPPDNAKQFVDWLDQASADEVKGVRYSVFGCGDKNWATTYQKVPAFIDETLAAKGAENIADRGEADASDDFEGTYEEWREHMWSDVAAYFNLDIENSEDNKSTLSLQFVDSAADMPLAKMHGAFSTNVVASKELQQPGSARSTRHLEIELPKEASYQEGGHLGVIPRNYEGTVNRVTARFGLDASQQIRLEAEEEKLAHLPLAKTVSVEELLQYVELQDPVTRTQLRAMAAKTVCPPHKVELEALLEKQAYKEQVLAKRLTMLELLEKYPACEMKFSEFIALLPSIRPRYYSISSSPRVDEKQASITVSVVSGEAWSGYGEYKGIASNYLAELQEGDTITCFISTPQSEFTLPKDPETPLIMVGPGTGVAPFRGFVQARKQLKEQGQSLGEAHLYFGCRSPHEDYLYQEELENAQSEGIITLHTAFSRMPNQPKTYVQHVMEQDGKKLIELLDQGAHFYICGDGSQMAPAVEATLMKSYADVHQVSEADARLWLQQLEEKGRYAKDVWAG
modifications: Mutant P450PMO protein sequence
notes: 7-7 plus G443A and D698G; propane monooxygenase

Experiments:
[1] = palmitic acid; cited from earlier work
[2] = Substrate profile on C2 to C10 alkanes (TTN normalized, MTN); type: biochemical; settings: highest TTN in the alkane series
Procedure: Reactions on alkanes. Reactions with alkanes from pentane to decane were carried out at 3 mL-scale using 100 mM KPi pH 8.0 buffer containing 2% ethanol (to allow alkane solubilization) and purified protein. 2.5 mL KPi buffer were added with 60 μL of 90 mM alkane solution in ethanol (final conc.=1.8 mM), 150 μL enzyme solution at 1 μM (final conc.=50 nM), and 300 μL NADPH regeneration solution (100 units/mL isocitrate dehydrogenase, 70 mg/mL isocitrate, 1.5 mg/ml NADP^+). Vials were sealed and stirred for 24 hours at 4° C. 1 mL-aliquot of the reaction was removed, added with 10 μl internal standard (25 mM 1-bromohexane in ethanol), and extracted with 200 μl chloroform (30 sec vortexing, 1 min centrifugation at 10000 g). The organic phase was removed and analyzed by gas chromatography. Reactions with ethane, propane, and butane were carried out as described for longer alkanes with the only difference that alkane-saturated KPi buffer was used. […] Propane and butane reactions were analyzed by direct injection of reaction solution on the GC using 1-pentanol as internal standard. Ethane reaction products were functionalized (see below) and analyzed by GC using 1-butanol as internal standard. […]
TTNs for each variant-substrate pair were determined using standardized reaction conditions (identical enzyme and substrate concentration, incubation time, cofactor regeneration system) (Table 18). […]

[3] = Halomethane reactions (formaldehyde, PFBHA, GC-ECD): bromomethane; type: biochemical
Procedure: Halomethane reactions: Reactions with chloromethane, bromomethane, and iodomethane were carried out in 1 mL-scale using halomethane-saturated buffer (100 mM phosphate pH 8.0) and 50-500 nM purified protein. 900 μL buffer were added with protein, incubated for 15 seconds, and then added with 100 μL NADPH regeneration solution (100 units/mL IDH, 70 mg/mL isocitrate, 1.5 mg/ml NADP+). Solution were sealed and stirred for 30 minutes at 25° C. To reduce background levels of formaldehyde to a minimum, buffers were prepared using HPLC-grade water and autoclaved twice prior to use. Formaldehyde concentration in the reaction solutions was determined through derivatization with o-(2,3,4,5,6-pentafluorobenzyl)hydroxylamine hydrochloride (PFBHA) and gas chromatography. […] Organic phase was removed, diluted 1/100 v/v, and analyzed on a Shimadzu GC-17A gas chromatograph. […] Quantification was carried out using a calibration curve and solutions at known concentration of formaldehyde. […]
Along with activity on propane, P450PMO also hydroxylates ethane (TTN˜2,500), despite ethane's higher C—H bond energy (101.0 kcal mol^−1 versus 98.6 kcal mol^−1 for propane). […] Reactions with purified P450 variants and the halomethanes were analyzed for formaldehyde formation (FIG. 42). […] Activity on chloromethane was detected at lower levels (0.5-1% of propane activity) and in fewer P450 variants. […]

Molecule | hydroxylation at the ω-2 position [1] [%] | MTN (Maximal Turnover Number) [2] | turnover rates, halomethane dehalogenase activities ([3]; CH3Cl, CH3Br, CH3I, estimated from 30 minute-reactions) | bromomethane dehalogenase activity ([3]; formaldehyde formation)
B1 | 48 | 150 | – | –
B2 | – | – | 0.5-5 min^−1 | 1-5 % of the propane activity

Reference: patent US12258605B2, “Alkane oxidation by modified hydroxylases” (The California Institute of Technology, priority 2005, dated 2025)
